Reference: US20090241202A1 (MICROMET, published 2009)

Biological target: T1, human EpCAM on Kato III gastric carcinoma cells (human, UniProt P16422 24-314)
T1 sequence (looked up): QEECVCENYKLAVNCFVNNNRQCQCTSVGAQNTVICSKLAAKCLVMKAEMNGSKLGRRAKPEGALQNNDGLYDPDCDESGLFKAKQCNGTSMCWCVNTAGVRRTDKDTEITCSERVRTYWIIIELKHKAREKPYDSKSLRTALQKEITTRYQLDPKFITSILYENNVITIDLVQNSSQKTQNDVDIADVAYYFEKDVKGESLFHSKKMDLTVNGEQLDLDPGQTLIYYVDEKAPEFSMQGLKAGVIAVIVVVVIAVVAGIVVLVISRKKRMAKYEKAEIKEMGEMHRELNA
Assay: cell-based or functional assay

B1: domain-grafted Anti-EpCAM (antibody, mouse IgG2a, kappa, V domains shown)
VH: EVQLLESGGGVVQPGRSLRLSCAASGFTFSSYGMHWVRQAPGKGLEWVAVISYDGSNKYYADSVKGRFTISRDNSKNTLYLQMNSLRAEDTAVYYCAKDMGWGSGWRPYYYYGMDVWGQGTTVTVSS
VL: ELQMTQSPSSLSASVGDRVTITCRTSQSISSYLNWYQQKPGQPPKLLIYWASTRESGVPDRFSGSGSGTDFTLTISSLQPEDSATYYCQQSYDIPYTFGQGTKLEIKR
For B1, the “EC50 of ADCC (lysis of Kato III target cells), unstimulated human PBMC as effector cells, E:T 20:1” value was 2.11 µg/mL and the “potency of ADCC against Anti-EpCAM, prestimulated murine NK cells as effector cells” value was 43.7 fold.
